Key:
[1] = target: T1, hu IGF-1R(ECD)-C3-muIgG1Fc (human; mouse, Glycosylated. 60% of the preparation was cleaved between the alpha and beta chains (RKRR, mature positions 708-711), which stay disulfide-linked; 40% was unprocessed. Dimer through the …); test: phage Fab ELISA, plate coated with IGF-1R-C3-mFc at 5 µg/ml
T1 construct: 60% of the product was processed into α and β chains, 40% unprocessed; also called IGF-1R(ECD)-C3-muFc; IGF-1R-C3-muFc
Procedure: (§1) In 96-well 2-ml deep-well blocks, 480 μl/well 2xYT-CG broth was inoculated with 20 μl of overnight cultures of the individual clones, then incubated at 37° C., 300 rpm for 3 hours. To each well, 50 μl of 1:3 diluted M13KO7 helper phage were added to infect the cells. The block was incubated at 37° C. without shaking for 30 minutes, and then shaken gently for another 30 minutes at 150 rpm. The block was centrifuged at 3600 rpm for 20 minutes to pellet the infected cells. The cell pellet in each well was suspended into 480 μl of 2xYT-CK (2xYT broth containing 100 μg/ml carbenicillin and 40 μg/ml kanamycin), and incubated at 30° C. overnight for about 20 hours. The cell debris was separated by centrifugation at 3600 rpm for 20 minutes. The rescued phage supernatant was used in the phage ELISA to check for IGF-1R-specific, INSR-cross reactive, or mouse Fc binding of individual clones.
(§2) The coated plates were washed 3× with 300 μl/well of PBS. The washed plates were blocked with 300 μl/well 2% MPBS at room temperature for one hour. Meanwhile, rescued phages of individual clones were pre-blocked by mixing 170 μl of rescued phage with 170 μl of 4% MPBS. The blocked plates were washed 5× with 300 μl/well TBST (TBS: 10 mM Tris-HCl, pH 7.5, 1 mM EDTA, 150 mM NaCl; Tween-20. 0.1%). 100 μl/well of pre-blocked phage dilutions were distributed to each set of coated plate, which were incubated at room temperature on a rocker for 90 minutes. The plates were washed 5× with 300 μl/well TBST. 100 μl/well of anti-M13-HRP in 2% MPBS (1:3000 dilution, catalog number 27-9421-01, Amersham Pharmacia Biotech) were distributed, and plates were incubated at room temperature on rocker for one hour. The plates were washed 5× with 300 μl/well TBST. 100 μl/well of the substrate 1-Step™ ABTS (Pierce Biotechnology, Rockford, Ill., catalog number 37615) were added. Plates were incubated for one hour. OD₄₀₅ was measured for signal detection.

[2] = target: T2, hu INSR(ECD)-muIgG1Fc (human; mouse, Glycosylated. 87% of the preparation was cleaved between the alpha and beta chains (RKRR site), which stay disulfide-linked. Dimer through the receptor and the murine Fc.); test: phage Fab ELISA, plate coated with INSR-mFc at 5 µg/ml
T2 construct: 87% processed into α and β chains; also called INSR(ECD)-muFc; INSR-mFc
Procedure: as §1, §2

Binder | binding result [1] | binding result [2]
L27H27 phage-displayed Fab (Fab, V domains shown) VH: EVQLVQSGGGVVQPGTSLRLSCAASGFSFRSHGMHWVRQAPGKGLEWVAVISYDGSNKYYADSVKGRFTISRDNSKNTLYLQMNSLRAEDTAVYYCATIGPGGFDYWGQGTLVTVSS VL: not shown | binds | no binding
L40H40 phage-displayed Fab (Fab, V domains shown) VH: QVQLVQSGAEVKKPGSSVKVSCKASGGTFSSYAISWVRQAPGQGLEWMGRIIPILGIANYAQKFQGRVTITADKSTSTAYMELSSLRSEDTAVYYCAYGSGSYYDYYYMDVWGKGTTVTVSS VL: ETTLTQSPATLSLSPGQRATLSCRASQSVYNYLAWYQQKPGQAPRLLIYDASRRATGIPARFSGSGSGTDFTLTISSLEPEDFAVYYCQQRNNWPLTFGGGTKVEIK | binds | no binding
L30H30 phage-displayed Fab (Fab, V domains shown) VH: QVQLQESGPGLVKPSGTLSLTCAVSGGSISSSNWWSWVRQPPGKGLEWIGEIYHSGSTNYNPSLKSRVTISVDKSKNQFSLKLSSVTAADTAVYYCARVSGYYYYGMDVWGQGTTVTVSS VL: not shown | binds | no binding
L37H37 phage-displayed Fab (Fab, V domains shown) VH: EVQLVESGPGLVKPSGTLSLTCAVSGGSISSSNWWSWIRQPPGKGLEWIGEIYHSGSTNYNPSLKSRVTISVDKSKNQFSLKLSSVTAADTAVYYCARDSSSWYYGMDVWGQGTTVTVSS VL: not shown | binds | no binding
L25H25 phage-displayed Fab (Fab, V domains shown) VH: QVQLQESGPGLVKPSGTLSLTCAVSGGSISSSNWWSWVRQPPGKGLEWIGEIYHSGSTNYNPSLKSRVTISVDKSKNQFSLKLSSVTAADTAVYYCASSGYDAFDIWGQGTTVTVSS VL: not shown | binds | no binding
L32H32 phage-displayed Fab (Fab, V domains shown) VH: QVQLQESGPGLVKPSGTLSLTCAVSGGSISSSNWWSWVRQPPGKGLEWIGEIYHSGSTNYNPSLKSRVTISVDKSKNQFSLKLSSVTAADTAVYYCARASVDAFDIWGQGTMVTVSS VL: not shown | binds | no binding
L31H31 phage-displayed Fab (Fab, V domains shown) VH: EVQLVQSGGGVVQPGRSLRLSCAASGFTFSSYGMHWVRQAPGKGLEWVAVISYDGSNKYYADSVKGRFTISRDNSKNTLYLQMNSLRAEDTAVYYCAKAYSSGWYDYYGMDVWGQGTTVTVSS VL: DIQLTQSPSSLSASVGDRVTITCRSSQGIGYFLNWYQQEPGKAPKILISAASTLQSGVPSRFSGSGSGTDFTLSINNLQPADFATYYCQQSHSPPYTFGQGTKVEIK | binds | no binding
L49H49 phage-displayed Fab (Fab, V domains shown) VH: QVQLQQWGAGLLKPSETLSLTCAVYGGSFSGYYWSWIRQPPGKGLEWIGEINHSGSTNYNPSLKSRVTISVDTSKNQFSLKLSSVTAADTAVYYCARVGYSHGEEVLDVWGKGTTVTVSS VL: NFMLTQPHSVSESPGKTVSISCTRNSGSIASNFVQWYQQRPGSAPTIVIYEDNQRPSAVPTRFSGSIDRSSNSASLTISGLTTEDEADYYCQSYDSANVIFGGGTKLTVL | binds | no binding
L36H36 phage-displayed Fab (Fab, V domains shown) VH: QVQLQQWGAGLLKPSETLSLTCAVYGGSFSGYYWSWIRQPPGKGLEWIGEINHSGSTNYNPSLKSRVTISVDTSKNQFSLKLSSVTAADTAVYYCARVGYSSGRDVDYWGQGTLVTVSS VL: NFMLTQPHSVSESPGKTVTISCTRSSGSIASNYVQWYQQRPGSSPTTVIYEDNQRPSGVPDRFSGSIDSSSNSASLTISGLKTEDEADYYCQSYDSSNVVFGGGTKLTVL | binds | no binding
L29H29 phage-displayed Fab (Fab, V domains shown) VH: QVQLQESGPGLVKPSETLSLTCAVSGGSISSSNWWSWVRQPPGKGLEWIGEIYHSGSTNYNPSLKSRVTISVDKSKNQFSLKLSSVTAADTAVYYCARVGSGWYVDYWGQGTLVTVSS VL: not shown | binds | no binding
L7H7 phage-displayed Fab (Fab, V domains shown) VH: QVQLQESGPGLVKPSGTLSLTCAVSGGSISSSNWWSWVRQPPGKGLEWIGEIYHSGSTNYNPSLKSRVTISVDKSKNQFSLKLSSVTAADTAVYYCARFWDYYGMDVWGQGTTVTVSS VL: not shown | binds | no binding
L6H6 phage-displayed Fab (Fab, V domains shown) VH: QVQLQESGPGLVKPSGTLSLTCAVSGGSISSSNWWSWVRQPPGKGLEWIGEIYHSGSTNYNPSLKSRVTISVDKSKNQFSLKLSSVTAADTAVYYCARDGQLDAFDIWGQGTMVTVSS VL: not shown | binds | no binding
L3H3 phage-displayed Fab (Fab, V domains shown) VH: QVQLQESGPGLVKPSGTLSLTCAVSGGSISSSNWWSWVRQPPGKGLEWIGEIYHSGSTNYNPSLKSRVTISVDKSKNQFSLKLSSVTAADTAVYYCAKNLAAGAVAYWGQGTLVTVSS VL: not shown | binds | no binding
L39H39 phage-displayed Fab (Fab, V domains shown) VH: EVQLVESGPGLVKPSGTLSLTCAVSGGSISSSNWWSWVRQPPGKGLEWIGEIYHSGSTNYNPSLKSRVTISVDKSKNQFSLKLSSVTAADTAVYYCARLSFADPFDIWGQGTMVTVSS VL: not shown | binds | no binding
L10H10 phage-displayed Fab (Fab, V domains shown) VH: EVQLVESGPGLVKPSGTLSLTCAVSGGSISSSNWWSWVRQPPGKGLEWIGEIYHSGSTNYNPSLKSRVTISVDKSKNQFSLKLSSVTAADTAVYYCARDYDIFGMDVWGQGTTVTVSS VL: not shown | binds | no binding
L34H34 phage-displayed Fab (Fab, V domains shown) VH: QVQLQQSGPGLVKPSGTLSLTCAVSGGSISSSNWWSWVRQPPGKGLEWIGEIYHSGSTNYNPSLKSRVTISVDKSKNQFSLKLSSVTPEDTAVYYCARDHGPFDYWGRGTLVTVSS VL: not shown | binds | no binding
L28H28 phage-displayed Fab (Fab, V domains shown) VH: QVQLQESGPGLVKPSETLSLTCTVSGGSIRNYYWSWIRQPPGKGLEWIGYISDSGNTNYNPSLKSRVTISVDTSKNQFSLKLTSVTATDTAAYFCARHRSSWAWYFDLWGRGTLVTVSS VL: SYVLTQPPSVSVSPGQTASITCSGDKLGDKYVGWYQQKAGQAPVLVIYQDNKRPSGIPERFSGSNSGNTASLTISGTQAMDEADYYCQAWDSGTVFGGGTKLTVL | binds | no binding
L38H38 phage-displayed Fab (Fab, V domains shown) VH: EVQLVESGPGLVKPSETLSLTCAVSGGSISSSNWWSWVRQPPGKGLEWIGEIYHSGSTNYNPSLKSRVTISVDKSKNQFSLKLSSVTAADTAVYYCARSTWSLDYWGQGTLVTVSS VL: not shown | binds | no binding
L14H14 phage-displayed Fab (Fab, V domains shown) VH: QVQLQESGPGLVKPSGTLSLTCAVSGGSISSSNWWSWVRQPPGKGLEWIGEIYHSGSTNYNPSLKSRVTISVDKSKNQFSLKLSSVTAADTAVYYCARGLGDSSGYILWGQGTMVTVSS VL: not shown | binds | no binding
L15H15 phage-displayed Fab (Fab, V domains shown) VH: QVQLQESGPGLVKPSGTLSLTCAVSGGSISSSNWWSWVRQPPGKGLEWIGEIYHSGSTNYNPSLKSRVTISVDKSKNQFSLKLSSVTAADTAVYYCARGLGDSSGYILWGQGTMVTVSS VL: DVVMTQSPLSLPVTPGEPASISCRSSQSLLHSNGYNYLDWYLQKPGQSPQLLIYLGSYRASGVPDRFSASGSGTDFTLKISRVEAEDVGVYYCMQALQTPITFGQGTRLEIK | binds | no binding
L33H33 phage-displayed Fab (Fab, V domains shown) VH: QVQLQESGPGLVKPSGTLSLTCAVSGGSISSSNWWSWVRQPPGKGLEWIGEIYHSGSTNYNPSLKSRVTISVDKSKNQFSLKLSSVTAADTAVYYCARGLGDSSGYILWGQGTMVTVSS VL: EIVLTQSPLSLPVTPGEPASISCRSSQSLLHSNGYNYLDWYLQKPGQSPQLLMYLVSNRASGVPERFSGSGSGTDFTLKISRVEAEDVGVYYCMQTLQTPLSFGQGTKLEIK | binds | no binding

Reference: patent US20140037642A1 (Amgen, published 2014)
